According to the supplement of paper PMC9112550, “Optimization of the antimicrobial peptide Bac7 by deep mutational scanning” (BMC Biology, 2022):

Test system: Escherichia coli TOP10
Experiment: shrunken log2 fold change of peptide-encoding DNA abundance (4.5 h post-induction vs induction); higher = less antimicrobial activity (less host growth inhibition)
Settings: time post-induction: 4.5 h; library: site-saturation at positions 5, 18, 19, 20
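Further: peptides expressed intracellularly from a pBAD plasmid library in pooled LB shake-flask culture, induced with 0.3% L-arabinose, DNA abundance read by NGS, three biological replicates, DESeq2 with apeglm shrinkage.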

| Sequence | shrunken log2 fold change |
| --- | --- |
| RRIRGRPPRLPRPRPRPPGAPRP | 1.51 |
| RRIRGRPPRLPRPRPRPPGCPRP | 0.895 |
| RRIRGRPPRLPRPRPRPPGHPRP | 0.772 |
| RRIRGRPPRLPRPRPRPPHHPRP | 0.537 |
| RRIRGRPPRLPRPRPRPPHKPRP | 0.858 |
| RRIRGRPPRLPRPRPRPPHVPRP | 1.04 |
| RRIRGRPPRLPRPRPRPPIFPRP | 0.35 |
| RRIRGRPPRLPRPRPRPPKDPRP | 0.799 |
| RRIRGRPPRLPRPRPRPPKEPRP | 0.176 |
| RRIRGRPPRLPRPRPRPPKMPRP | 0.348 |
| RRIRGRPPRLPRPRPRPPLPPRP | 1.01 |
| RRIRGRPPRLPRPRPRPPLRPRP | 0.796 |
| RRIRGRPPRLPRPRPRPPMIPRP | -0.0528 |
| RRIRGRPPRLPRPRPRPPMRPRP | 1.39 |
| RRIRGRPPRLPRPRPRPPNNPRP | 0.835 |
| RRIRGRPPRLPRPRPRPPNTPRP | 0.516 |
| RRIRGRPPRLPRPRPRPPPCPRP | 1.16 |
| RRIRGRPPRLPRPRPRPPPEPRP | 2.01 |
| RRIRGRPPRLPRPRPRPPPLPRP | 1.16 |
| RRIRGRPPRLPRPRPRPPRHPRP | 0.818 |
| RRIRGRPPRLPRPRPRPPRTPRP | 1.33 |
| RRIRGRPPRLPRPRPRPPTRPRP | 1 |
| RRIRGRPPRLPRPRPRPPVGPRP | 0.579 |
| RRIRGRPPRLPRPRPRPPVLPRP | 0.25 |
| RRIRGRPPRLPRPRPRPPVVPRP | 1.7 |

| Sequence | shrunken log2 fold change |
| --- | --- |
| RRIRGRPPRLPRPRPRPPWIPRP | 0.256 |
| RRIRGRPPRLPRPRPRPPYHPRP | 0.0679 |
| RRIRGRPPRLPRPRPRPPYKPRP | 0.18 |
| RRIRGRPPRLPRPRPRPPYTPRP | 0.145 |
| RRIRGRPPRLPRPRPRPQADPRP | 0.43 |
| RRIRGRPPRLPRPRPRPQAHPRP | 0.441 |
| RRIRGRPPRLPRPRPRPQCCPRP | 0.168 |
| RRIRGRPPRLPRPRPRPQDLPRP | -0.00287 |
| RRIRGRPPRLPRPRPRPQDVPRP | 0.0766 |
| RRIRGRPPRLPRPRPRPQDYPRP | -0.0805 |
| RRIRGRPPRLPRPRPRPQGSPRP | -0.0808 |
| RRIRGRPPRLPRPRPRPQHHPRP | -0.102 |
| RRIRGRPPRLPRPRPRPQHQPRP | 0.524 |
| RRIRGRPPRLPRPRPRPQINPRP | 0.324 |
| RRIRGRPPRLPRPRPRPQISPRP | 0.259 |
| RRIRGRPPRLPRPRPRPQIWPRP | 0.293 |
| RRIRGRPPRLPRPRPRPQNEPRP | 0.208 |
| RRIRGRPPRLPRPRPRPQQQPRP | 0.843 |
| RRIRGRPPRLPRPRPRPQRWPRP | 0.293 |
| RRIRGRPPRLPRPRPRPQSFPRP | 0.218 |
| RRIRGRPPRLPRPRPRPQTCPRP | 0.403 |
| RRIRGRPPRLPRPRPRPQVFPRP | 0.0336 |
| RRIRGRPPRLPRPRPRPQVKPRP | 0.564 |
| RRIRGRPPRLPRPRPRPQWKPRP | 0.113 |
| RRIRGRPPRLPRPRPRPQWQPRP | -0.134 |

| Sequence | shrunken log2 fold change |
| --- | --- |
| RRIRGRPPRLPRPRPRPQYSPRP | 0.0802 |
| RRIRGRPPRLPRPRPRPRAAPRP | 1.53 |
| RRIRGRPPRLPRPRPRPRCDPRP | 0.629 |
| RRIRGRPPRLPRPRPRPRDAPRP | 1.21 |
| RRIRGRPPRLPRPRPRPRESPRP | 1.26 |
| RRIRGRPPRLPRPRPRPRFCPRP | 0.569 |
| RRIRGRPPRLPRPRPRPRGPPRP | 1.66 |
| RRIRGRPPRLPRPRPRPRHDPRP | 0.417 |
| RRIRGRPPRLPRPRPRPRKEPRP | 0.363 |
| RRIRGRPPRLPRPRPRPRLFPRP | 1.11 |
| RRIRGRPPRLPRPRPRPRPFPRP | 0.889 |
| RRIRGRPPRLPRPRPRPRPNPRP | 0.64 |
| RRIRGRPPRLPRPRPRPRPSPRP | 0.49 |
| RRIRGRPPRLPRPRPRPRRAPRP | 0.963 |
| RRIRGRPPRLPRPRPRPRYNPRP | -0.0667 |
| RRIRGRPPRLPRPRPRPSACPRP | 1.5 |
| RRIRGRPPRLPRPRPRPSALPRP | 1.38 |
| RRIRGRPPRLPRPRPRPSCAPRP | 1.08 |
| RRIRGRPPRLPRPRPRPSCRPRP | 0.417 |
| RRIRGRPPRLPRPRPRPSFEPRP | 0.647 |
| RRIRGRPPRLPRPRPRPSHIPRP | 0.0558 |
| RRIRGRPPRLPRPRPRPSIIPRP | 0.211 |
| RRIRGRPPRLPRPRPRPSKIPRP | 0.149 |
| RRIRGRPPRLPRPRPRPSLPPRP | 0.178 |
| RRIRGRPPRLPRPRPRPSMSPRP | 0.453 |
